Assay results: the supplement of paper PMC6757056
± gives the standard deviation of the averaged measurements.

B1: library; a variant is named by its letters at N, in order (parent)
chain: GCUGUCACCGGUGUAUUACCCUAGUGGUCGACCGGUCUGAUGAGUCUNNNNNNAGACGAAACAGC

Key:
hypoxanthine [1] = variants of: B1; assay: FACS-Seq fitted mean relative fluorescence mCherry/BFP without ligand (log10 relative fluorescence); ligand: hypoxanthine (xanthine aptamer); higher = higher reporter protein expression; conditions: HEK293T, ligand present: no
How it was run: (§1)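 Fluorescence is reported as a normalized fitted mean of sorted-bin read counts. Lentivirally transduced HEK293T libraries (mCherry ribozyme-switch reporter, EF1α-BFP marker) were enriched, treated with or without ligand for 48 h, and sorted into 6 mCherry/BFP bins for MiSeq sequencing of PCR-amplified genomic DNA. The normal fit was on log10(mCherry/BFP), scaled to five spiked-in control ribozymes.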

hypoxanthine [2] = variants of: B1; assay: normalized RNA/DNA level with ligand (relative to sTRSVctl = 100) (log10 (% of sTRSVctl)); ligand: hypoxanthine (xanthine aptamer); higher = less ribozyme self-cleavage, higher mRNA level; conditions: ligand concentration (+) RNA-Seq: 5 mM, HEK293T, reporter: mCherry (pCS4076), ligand present: yes
How it was run: (§2)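 Library plasmids encoding reporter-linked ribozyme switches (mCherry, or eGFP for some folinic acid experiments) were transfected into HEK293T at 4 µg per 6-well well. Ligand, when used, was added 1 h before transfection. Total RNA was extracted with EDTA 72 h later, then reverse-transcribed, amplified, barcoded and sequenced. RNA level was RNA reads over DNA reads, divided by a spiked-in non-cleaving control (or the top 25 sequences), ×100, log10; only sequences with ≥100 DNA reads were kept.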

hypoxanthine [3] = variants of: B1; assay: normalized RNA/DNA level without ligand (relative to sTRSVctl = 100) (log10 (% of sTRSVctl)); ligand: hypoxanthine (xanthine aptamer); higher = less ribozyme self-cleavage, higher mRNA level; conditions: HEK293T, reporter: mCherry (pCS4076), ligand present: no
How it was run: as §2

hypoxanthine [4] = variants of: B1; assay: FACS-Seq fitted mean relative fluorescence mCherry/BFP with ligand (log10 relative fluorescence); ligand: hypoxanthine (xanthine aptamer); ligand concentration (+) FACS-Seq: 5 mM; higher = higher reporter protein expression; conditions: HEK293T, ligand present: yes
How it was run: as §1

Variant	FACS-Seq fitted mean (log10) (hypoxanthine [1])	normalized RNA/DNA level with ligand (log10) (hypoxanthine [2])	normalized RNA/DNA level without ligand (log10) (hypoxanthine [3])	FACS-Seq fitted mean (log10) (hypoxanthine [4])
GGUAAC	0.447 ± 0.063	1.96 ± 0.067	1.82 ± 0.031	0.455 ± 0.018
GGUAAU	0.123 ± 0.061	1.918 ± 0.019	1.79 ± 0.035	0.314 ± 0.036
AGGGUC	0.588 ± 0.012	2.003 ± 0.0048	1.94 ± 0.06	0.51 ± 0.11
AGGGUU	0.328 ± 0.006	1.97 ± 0.027	1.9 ± 0.029	0.0205 ± 0.029
AGGGUA	0.412 ± 0.086	1.95 ± 0.041	1.82 ± 0.0091	0.427 ± 0.064
GGGCGG	0.372 ± 0.034	1.9325 ± 0.00079	1.577 ± 0.0083	0.586 ± 0.017
GGGGCU	-0.598 ± 0.026	1.99 ± 0.074	2.008 ± 0.015	-0.677 ± 0.077
GGGGCC	-0.395 ± 0.028	1.97 ± 0.036	1.89 ± 0.077	0.0142 ± 0.039
UGGCGA	0.345 ± 0.039	1.94 ± 0.031	1.65 ± 0.034	0.579 ± 0.11
AGGGGC	0.795 ± 0.067	1.95 ± 0.047	1.86 ± 0.079	0.741 ± 0.049
AGGGGG	0.363 ± 0.12	1.88 ± 0.034	1.53 ± 0.07	0.631 ± 0.028
GGGUCC	0.29 ± 0.12	2 ± 0.023	1.991 ± 0.019	0.3574 ± 0.0012
CGGGGC	0.7 ± 0.032	1.95 ± 0.021	1.896 ± 0.017	0.628 ± 0.0078
AGUACG	0.173 ± 0.058	1.84 ± 0.022	1.38 ± 0.052	0.423 ± 0.086
UGGGGA	0.00194 ± 0.046	1.88 ± 0.041	1.48 ± 0.029	0.376 ± 0.0086
UGUACU	0.71 ± 0.019	1.933 ± 0.012	1.8501 ± 0.00062	0.66 ± 0.018
UGUACA	0.848 ± 0.044	1.919 ± 0.018	1.85 ± 0.066	0.78 ± 0.076
CGGCAU	-0.119 ± 0.0088	1.9 ± 0.037	1.56 ± 0.1	0.0858 ± 0.0049
UGUAUG	0.361 ± 0.043	1.909 ± 0.007	1.777 ± 0.0029	0.435 ± 0.059
UGGAUG	0.4451 ± 0.0015	1.92 ± 0.025	1.659 ± 0.0063	0.341 ± 0.018
UGGUCA	0.761 ± 0.06	1.97 ± 0.043	1.84 ± 0.025	0.607 ± 0.11
UGGUCG	-0.282 ± 0.14	1.924 ± 0.012	1.79 ± 0.06	-0.0942 ± 0.036
UGGAAU	-0.0639 ± 0.013	1.887 ± 0.0035	1.659 ± 0.0056	0.205 ± 0.02
AGGCGG	0.194 ± 0.017	1.841 ± 0.0031	1.354 ± 0.01	0.536 ± 0.039

Variant	FACS-Seq fitted mean (log10) (hypoxanthine [1])	normalized RNA/DNA level with ligand (log10) (hypoxanthine [2])	normalized RNA/DNA level without ligand (log10) (hypoxanthine [3])	FACS-Seq fitted mean (log10) (hypoxanthine [4])
AGGCGU	0.521 ± 0.063	1.94 ± 0.02	1.67 ± 0.025	0.656 ± 0.01
AGUAAA	0.625 ± 0.22	1.891 ± 0.011	1.73 ± 0.063	0.59 ± 0.032
AGUAAU	0.85054 ± 0.00034	1.88 ± 0.03	1.85 ± 0.056	0.78 ± 0.058
GGGGAG	-0.274 ± 0.0067	1.812 ± 0.0043	1.46 ± 0.013	-0.0598 ± 0.036
GGGGAA	0.623 ± 0.047	1.91 ± 0.032	1.66 ± 0.022	0.751 ± 0.032
AGCUGC	0.448 ± 0.0077	2 ± 0.035	1.87 ± 0.076	0.755 ± 0.036
AGCUGG	-0.403 ± 0.022	1.91 ± 0.069	1.57 ± 0.035	-0.291 ± 0.096
GGUCAC	0.222 ± 0.021	1.91 ± 0.05	1.825 ± 0.0063	0.633 ± 0.0098
AGGAAG	-0.0152 ± 0.00091	1.63 ± 0.038	1.11 ± 0.055	0.161 ± 0.026
AGGAAA	0.102 ± 0.031	1.87 ± 0.019	1.56 ± 0.037	0.42 ± 0.058
AGGAAC	0.573 ± 0.093	1.91 ± 0.042	1.66 ± 0.039	0.568 ± 0.099
CGUACA	0.575 ± 0.038	1.92 ± 0.061	1.72 ± 0.037	0.49 ± 0.085
CGUACC	0.313 ± 0.054	1.98 ± 0.065	1.89 ± 0.021	0.536 ± 0.047
UGUCCU	0.984 ± 0.042	1.95 ± 0.091	1.93 ± 0.039	0.87 ± 0.054
UGUCCC	0.383 ± 0.13	2 ± 0.12	1.935 ± 0.013	0.29 ± 0.068
UGUAGA	0.133 ± 0.057	1.93 ± 0.043	1.55 ± 0.049	0.19 ± 0.011
GGGUAG	-0.254 ± 0.0079	1.74 ± 0.03	1.44 ± 0.079	0.395 ± 0.063
GGGUAC	0.1586 ± 0.00038	1.93 ± 0.06	1.68 ± 0.037	0.529 ± 0.049
GGGUAA	0.396 ± 0.048	1.884 ± 0.0098	1.71 ± 0.045	0.6223 ± 0.0027
GGGUAU	0.137 ± 0.2	1.94 ± 0.053	1.71 ± 0.047	0.374 ± 0.03
UGGACG	0.639 ± 0.083	1.96 ± 0.082	1.68 ± 0.048	0.676 ± 0.22
GGUACG	0.173 ± 0.027	1.88 ± 0.031	1.49 ± 0.016	0.506 ± 0.019
GGUACU	0.2 ± 0.042	1.97 ± 0.083	1.93 ± 0.047	0.258 ± 0.029
CGGUUC	0.133 ± 0.2	1.964 ± 0.01	1.79 ± 0.066	0.211 ± 0.024

Variant	FACS-Seq fitted mean (log10) (hypoxanthine [1])	normalized RNA/DNA level with ligand (log10) (hypoxanthine [2])	normalized RNA/DNA level without ligand (log10) (hypoxanthine [3])	FACS-Seq fitted mean (log10) (hypoxanthine [4])
GGGCAG	0.0036 ± 0.061	1.881 ± 0.013	1.5894 ± 0.0015	0.434 ± 0.012
GGGCAA	0.0453 ± 0.045	1.963 ± 0.0095	1.783 ± 0.013	0.266 ± 0.015
GGGCAU	-0.045 ± 0.015	1.933 ± 0.012	1.83 ± 0.075	0.103 ± 0.018
UGGAGU	0.221 ± 0.061	1.78 ± 0.019	1.32 ± 0.051	0.602 ± 0.023
UGGAGG	0.223 ± 0.0051	1.73 ± 0.018	1.26 ± 0.072	0.592 ± 0.036
UGGAGC	0.45 ± 0.088	1.959 ± 0.019	1.707 ± 0.01	0.69 ± 0.031
UGGAGA	0.259 ± 0.025	1.791 ± 0.0083	1.33 ± 0.092	0.644 ± 0.0081
GGUAGG	-0.101 ± 0.028	1.69 ± 0.062	1.29 ± 0.041	0.5153 ± 0.001
GGUAGU	0.573 ± 0.11	1.9 ± 0.06	1.75 ± 0.0084	0.507 ± 0.034
GGUAGC	0.239 ± 0.017	1.86 ± 0.054	1.35 ± 0.059	0.647 ± 0.056
CGUAAA	0.554 ± 0.028	1.865 ± 0.0031	1.65 ± 0.034	0.4915 ± 0.0049
AGGACG	0.233 ± 0.013	1.784 ± 0.01	1.37 ± 0.036	0.567 ± 0.0099
AGGACC	0.421 ± 0.0047	1.94 ± 0.042	1.88 ± 0.028	0.565 ± 0.034
AGGACU	0.894 ± 0.099	1.94 ± 0.058	1.802 ± 0.0094	0.734 ± 0.031
AGGAGG	0.0646 ± 0.011	1.584 ± 0.0034	1.186 ± 0.0034	0.626 ± 0.055
AGGAGA	0.176 ± 0.052	1.78 ± 0.049	1.28 ± 0.033	0.621 ± 0.034
AGGAGU	0.142 ± 0.026	1.8 ± 0.024	1.37 ± 0.03	0.537 ± 0.073
AGGAGC	0.421 ± 0.0061	1.883 ± 0.003	1.485 ± 0.0035	0.5478 ± 0.0022
AGGCAU	-0.0543 ± 0.062	1.92 ± 0.067	1.8 ± 0.047	0.027 ± 0.034
AGGCAG	0.337 ± 0.023	1.82 ± 0.037	1.45 ± 0.0028	0.534 ± 0.015
GGGAGA	0.0269 ± 0.057	1.84 ± 0.02	1.429 ± 0.014	0.516 ± 0.024
GGGAGU	0.36 ± 0.0084	1.92 ± 0.047	1.63 ± 0.039	0.629 ± 0.011
GGGAGC	-0.04041 ± 0.0004	1.74 ± 0.068	1.16 ± 0.014	0.622 ± 0.026
GGGAGG	0.0166 ± 0.058	1.76 ± 0.021	1.3 ± 0.03	0.374 ± 0.033
